This data set concerns CC[C@H](C)[C@H](NC(=O)[C@H](CCCNC(=N)N)NC(=O)CNC(=O)[C@@H](N)CO)C(=O)NCC(=O)N[C@@H](Cc1ccccc1)C(=O)N[C@@H](CC(C)C)C(=O)N[C@@H](CCCNC(=N)N)C(=O)N[C@H](C(=O)N[C@@H](C)C(=O)O)[C@@H](C)O. The data set can be described thus: Ratio of kcat/km for human recombinant MMP14 assessed as drug cleavage.

Turning to “Matrix metalloproteinase-14 (Homo sapiens) (from UniProt P50281)”, the kcat/Km came to 777000 M⁻¹ s⁻¹.

Source of the values: ChEMBL document CHEMBL1140886, “Development of an optimized activatable MMP-14 targeted SPECT imaging probe” (Bioorg Med Chem, 2009).
